Measurements: paper PMC5969255

Target: MnSOD-3[Q142H], site-directed mutant of the manganese superoxide dismutase SOD-3 of C. elegans (C. elegans) (UniProt P41977)
Assay: crystal structure

MnSOD-3[Q142H], site-directed mutant of the manganese superoxide dismutase SOD-3 of C. elegans (from UniProt P41977 25-218) (enzyme)
stoichiometry N: 4
